Results taken from the nanobody polyreactivity screen of Harvey et al. (2022).

experiment: yeast display, Sf9 membrane polyspecificity reagent, FACS + sequencing; frameworks hold sequencing errors
Outline: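 Using colony PCR, genes from sorted yeast display clones were amplified, then sequenced on MiSeq at 2 × 250 and filtered by CDR length. The clones had been stained with 10% biotinylated, detergent-solubilized Sf9 membrane reagent for 1 hour at 4 °C and sorted by FACS into low and high (top ~1%) gates on anti-HA and streptavidin fluorescence. Polyreactivity labels come from the gate of origin.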

Sequence	polyreactivity (PSR sort gate)
QVQLVESGGGLVQAGGSLRLSCASSGSTFPSNAMGWYRQAPGKERELVAAISRSGGSTYYADSVKGRFTISRDNAKNTVYLQMNSLKPEDTAVYYCAVQVRPNYGGTRIHRGGYDYWGQGTQVTVSS	low polyreactivity
QVQLVESGGGLVQAGGSLRLSCASSGSTFPVYAMGWYRQPPGKDRELVAAITSGGSTYYADSVKGRFTISRDNEKNTVSLQMNIRKPEDTAVYYCNADGYLSYAFDYWGQGTQVTVSS	low polyreactivity
QVQLVESGGGLVQAGGSLRLSCASSGSTFVTYAMGWYRQAPGKERELVAAITEDGASTYYADSVKGRFTISRDNAKNTVYLQMNSLKPEDTAVYYCAADPTYWPVWYVLYDYWGQGTQVTVSS	low polyreactivity
QVQLVESGGGLVQAGGSLRLSCASSGSTFYFNAMGWSRQAPGKERELVAGNSSGGSTYYADSVKGRFTISRDNAKNTVYLQMNSLKPEDTAVYYCAADSDTFYYTGYDYDYWGQGTQVTVSS	low polyreactivity
QVQLVESGGGLVQAGGSLRLSCASSGSTFYHYAMVWYRQAPGKERELVAAISWSGGSTYYADSVKGRFTISRDNAKNTVYLQMNSLKPEDTAVYYCAARGRARQRTSFEYWGQGTQVTVSS	high polyreactivity
QVQLVESGGGLVQAGGSLRLSCASSGSTFYNNAMGWYRPAPGKDRELVAAISSGGGTYYADSVKGRFTISRDNAKNTVYLQMNSLKPEDTAVYYCAADFANTTHWGRIKRYDYWGQGTQVTVSS	low polyreactivity
QVQLVESGGGLVQAGGSLRLSCASSGSTFYTNAMGWYRQAPGKESEFVDAISWSGSSTYADSVKGRFTISRDNAKITVYLQMNSLKPEDTAVYYCAKATSSLYHYRYDYWGQGTQVTVSS	low polyreactivity
QVQLVESGGGLVQAGGSLRLSCASSGSTWWYAMGWYRQAPGKEMELVATISYSGGSTYYADSVKGRFTISRDNAKNSVYLQMNSLKPEDTAVYYCAAKKWTAVRRDFWGQGTQVTVSS	high polyreactivity
QVQLVESGGGLVQAGGSLRLSCASSGYTFYAYAMGWYRQAPGKERELVAAISGSGGNTRYADSVKGRFTISRDNAKNTVYLQMNILKPEDTAVYYCAKRIIRSPFGAYGYWGQGTQVTVSS	high polyreactivity
QVQLVESGGGLVQAGGSLRLSCATSGRTFWFYAMGWYRQAPGKERELVAAISSGGSTNYADSVKGRFTISRDNAKNTVYLQMNSLKPEVTAVYYCAKVGNIPYGTRYYSNRYDYWGQGTQVTVSS	low polyreactivity
QVQLVESGGGLVQAGGSLRLSCAVSGFNFPYYAMGWYRQAPGKERELVAAINQRGGSTYYADSVKGRFTISRDNAKNTVYLQMNSLKPEDTAVYYCAADRHSKTYYYSYGYWGQGTQVTVSS	high polyreactivity
QVQLVESGGGLVQAGGSLRLSCDASGFIFWWYAMGWYRQAPGKEREFVAYISWSGARTYYADSVKGRFTISRDNAKNTVYLLMNSLKQEDTAVYYCNADRIGRYYQSYGGGHMDYWGQGTQVNVSS	high polyreactivity
QVQLVESGGGLVQAGGSLRLSCDASGFIFYYNAMGWYRQAPGKESELVAGISWDGSTYYADSVKGRFTISRDNAKNTVYLQMNSLKPEETAVYYCAAALLDDYFDLFIFGYWGQGTQVTVSS	low polyreactivity
QVQLVESGGGLVQAGGSLRLSCDASGFTFTRNAMGWYRQAPGKERELVDAISKRGGTTYYADSVKGRFTISRDYAKNTVYLQMNTLKPEDTSVYYCAKDGGITGGYWGQGTQVTVSS	high polyreactivity
QVQLVESGGGLVQAGGSLRLSCDASGGTFPYYAMGWYRQATGKERELVPDISGTDGSTYYADSVKGRFTISRDNANYTVYLQMNSLKPEDTAVYYCNADPHWWYWDYDYWGQGTQVTVSS	high polyreactivity
QVQLVESGGGLVQAGGSLRLSCDASGITFLNYAMGWYRQAPGKERELVAAIDTRGGRTNYADSVKGRFTISRDNAKNTVYLQMNSLKPEDTAVYYCAADPFYWYRSVRGEYWGQGTQVTVSS	low polyreactivity
QVQLVESGGGLVQAGGSLRLSCDASGITFYSYAMGWYRQAPGKEREFVAAITRGGGITSYADSVKGRFTISRDNAKNTVYLQMNSLKPEDTAVYYCAVYTYHYGRSTYYKYDYWGQGTQVTVSS	high polyreactivity
QVQLVESGGGLVQAGGSLRLSCDASGITVAGYAMGWYRHAPGKEWELVAAISRGGSTYYADSVKGRFTISRDNAKNTVYLQMNSLKPEDTAVYYCNTDDQQGYFTYTGWNYNYWGQGTQVSVSS	high polyreactivity
QVQLVESGGGLVQAGGSLRLSCDASGLIFSWYAMGWYRQPPGKERELVAAISKGGGSTYYADSVKGRFTISRDNAKITVYLQMNSLKPEDTAVYYCAAASSYGYGYWGQGTQVTVSS	high polyreactivity
QVQLVESGGGLVQAGGSLRLSCDASGLNMYKNGMGWYRQAPGKERELVAVISRSGCRTYYADSVKGRFTISRDTAKNTVYVQMNSLKPEDTAVYYCAARQYGPRYTYYYWGQGTQVTVSS	high polyreactivity
QVQLVESGGGLVQAGGSLRLSCDASGLTFAYYAMGWYRQEPGKERELVADISWNGGRTYYSDSVKGRFTISGYNAKNTVYLQMNSLKPEDSAVYYCAAQVTSSFYWGQGTQVTVSS	high polyreactivity
